Source: article PMC6891901

Tested on: T1, KH9-OEP34 (CTP) (synthetic)
T1 sequence: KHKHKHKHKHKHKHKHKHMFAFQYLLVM
Test: free peptide quantification
Details: in water; N/P 0.5-5.0; value stated as up to 64%; pDNA/CTP complexes formed in water, N/P 0.1-25, agarose gel EMSA; pH, salt and temperature not given in the material

pPpsbA::Rluc
binding signal (% of CTP bound (maximum)): 64
